Data on 2 variants can be found in IntAct's records for PubMed 14551211.

To fix the notation:
B1: ATP-dependent DNA helicase II subunit 2 (Saccharomyces cerevisiae), Q04437 (parent)
chain: MSSESTTFIVDVSPSMMKNNNVSKSMAYLEYTLLNKSKKSRKTDWISCYLANCPVSENSQEIPNVFQIQSFLAPVTTTATIGFIKRLKQYCDQHSHDSSNEGLQSMIQCLLVVSLDIKQQFQARKILKQIVVFTDNLDDLDITDEEIDLLTEELSTRIILIDCGKDTQEERKKSNWLKLVEAIPNSRIYNMNELLVEITSPATSVVKPVRVFSGELRLGADILSTQTSNPSGSMQDENCLCIKVEAFPATKAVSGLNRKTAVEVEDSQKKERYVGVKSIIEYEIHNEGNKKNVSEDDQSGSSYIPVTISKDSVTKAYRYGADYVVLPSVLVDQTVYESFPGLDLRGFLNREALPRYFLTSESSFITADTRLGCQSDLMAFSALVDVMLENRKIAVARYVSKKDSEVNMCALCPVLIEHSNINSEKKFVKSLTLCRLPFAEDERVTDFPKLLDRTTTSGVPLKKETDGHQIDELMEQFVDSMDTDELPEIPLGNYYQPIGEVTTDTTLPLPSLNKDQEENKKDPLRIPTVFVYRQQQVLLEWIHQLMINDSREFEIPELPDSLKNKISPYTHKKFDSTKLVEVLGIKKVDKLKLDSELKTELEREKIPDLETLLKRGEQHSRGSPNNSNN

The test covers variants of B1. Conditions: with sir4_yeast SIR4, P11978.
Sequence of sir4_yeast SIR4, P11978 (P11978 whole entry): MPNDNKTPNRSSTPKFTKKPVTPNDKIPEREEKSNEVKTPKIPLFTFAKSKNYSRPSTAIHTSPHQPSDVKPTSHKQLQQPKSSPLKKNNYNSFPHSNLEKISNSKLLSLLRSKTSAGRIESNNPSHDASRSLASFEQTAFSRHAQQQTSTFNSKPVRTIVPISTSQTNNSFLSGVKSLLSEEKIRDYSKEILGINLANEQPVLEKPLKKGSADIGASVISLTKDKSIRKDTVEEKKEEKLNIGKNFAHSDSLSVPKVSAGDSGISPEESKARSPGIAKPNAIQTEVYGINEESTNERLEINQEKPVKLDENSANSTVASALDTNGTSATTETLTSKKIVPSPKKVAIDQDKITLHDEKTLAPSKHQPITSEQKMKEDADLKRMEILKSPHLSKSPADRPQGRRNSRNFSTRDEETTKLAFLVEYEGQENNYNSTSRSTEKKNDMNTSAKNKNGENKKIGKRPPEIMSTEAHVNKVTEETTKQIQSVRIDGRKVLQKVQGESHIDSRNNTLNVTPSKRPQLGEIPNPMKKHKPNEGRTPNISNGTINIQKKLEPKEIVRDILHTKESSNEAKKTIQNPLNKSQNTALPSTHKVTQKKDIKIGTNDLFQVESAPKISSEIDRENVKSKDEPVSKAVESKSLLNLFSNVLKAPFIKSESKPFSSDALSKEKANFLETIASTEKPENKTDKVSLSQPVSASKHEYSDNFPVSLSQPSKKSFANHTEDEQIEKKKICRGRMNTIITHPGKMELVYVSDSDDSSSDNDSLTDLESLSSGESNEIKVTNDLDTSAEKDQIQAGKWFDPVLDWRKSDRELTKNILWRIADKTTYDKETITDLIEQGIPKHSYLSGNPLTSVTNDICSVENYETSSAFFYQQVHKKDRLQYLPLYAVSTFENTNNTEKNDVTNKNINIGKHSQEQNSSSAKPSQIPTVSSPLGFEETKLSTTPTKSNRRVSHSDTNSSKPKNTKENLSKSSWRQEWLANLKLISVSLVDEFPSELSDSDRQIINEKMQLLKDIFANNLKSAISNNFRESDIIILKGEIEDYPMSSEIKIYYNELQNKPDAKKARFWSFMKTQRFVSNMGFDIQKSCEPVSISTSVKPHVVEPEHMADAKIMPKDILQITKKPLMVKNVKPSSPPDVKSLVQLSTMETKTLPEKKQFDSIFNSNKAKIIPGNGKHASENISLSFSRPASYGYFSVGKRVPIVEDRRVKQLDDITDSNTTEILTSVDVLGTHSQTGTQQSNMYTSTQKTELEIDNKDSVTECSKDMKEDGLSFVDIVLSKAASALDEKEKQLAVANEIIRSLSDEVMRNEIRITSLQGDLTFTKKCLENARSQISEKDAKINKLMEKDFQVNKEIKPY
D441G: the “effect of a mutation on the interaction” value is “decreasing interaction”.
Consider P437A;F438A, for which the “effect of a mutation on the interaction” value is “decreasing interaction”.
